Drawing on US20250320281A1, this text covers IC50 (µg/ml), pseudovirus neutralization, IC50 and IC50, pseudovirus neutralization for four substances.

What all share (assay): cell-based or functional assay
Assay [1] deals with HIV-1 Env of isolate NL43, clade B, on pseudovirus (HIV-1).
The target of assay [2] is HIV-1 Env of pseudovirus MGRM-F1-016 (HIV-1).
Assay [3] addresses HIV-1 envelope glycoprotein (Env) of isolate MGRM-A-013, clade A (HIV-1).
Assay [4] addresses HIV-1 Env of isolate MGRM-Chronic-B-004, clade B, on pseudovirus (HIV-1).
Assay [5] has as its target HIV-1 envelope glycoprotein (Env) of isolate 92RW020, clade A (HIV-1).
Assay [6] has as its target HIV-1 Env of isolate MGRM-Chronic-B-008, clade B, on pseudovirus (HIV-1).
In assay [7] the target is HIV-1 Env of isolate MGRM-D-028 (clade D pseudovirus) (HIV-1).
The target in assay [8] is HIV-1 Env of isolate MGRM-D-024 (clade D pseudovirus) (HIV-1).
Assay [9] deals with HIV-1 Env of isolate 93IN905 (HIV-1).
Assay [10] addresses HIV-1 Env of pseudovirus MGRM-G-013 (HIV-1, clade G isolate MGRM-G-013).
For assay [11], the target named is HIV-1 Env of pseudovirus MGRM-AE-002 (clade CRF01_AE) (HIV-1).
Assay [12] concerns the target HIV-1 Env of isolate TRO.11 (Acute), clade B, on pseudovirus (HIV-1).
Assay [13] has as its target HIV-1 Env of isolate 97ZA012 (clade C) (HIV-1 isolate 97ZA012).
Assay [14] concerns the target HIV-1 envelope glycoprotein (Env) of isolate 92UG031, clade A (HIV-1).
The target in assay [15] is HIV-1 Env of pseudovirus MGRM-G-006 (clade G) (HIV-1).
In assay [16] the target is aMLV envelope protein on pseudovirus.
Assay [17] has as its target HIV-1 Env of pseudovirus MGRM-AG-005 (clade CRF_AG) (HIV-1).
Assay [18] addresses HIV-1 92UG005 envelope glycoprotein (Env) on pseudovirus (HIV-1).
The target in assay [19] is HIV-1 Env of isolate THR0.18 (Acute), clade B, on pseudovirus (HIV-1).
Assay [20] deals with HIV-1 Env of pseudovirus MGRM-AG-002 (clade CRF_AG) (HIV-1).
In assay [21] the target is HIV-1 94UG114 envelope glycoprotein (Env) on pseudovirus (HIV-1 (isolate 94UG114, clade D)).
Assay [22] concerns the target HIV-1 Env of pseudovirus MGRM-G-017 (HIV-1, clade G isolate MGRM-G-017).

Chain of 1443_C16 (PG16) (TCN-116) (antibody) (VH): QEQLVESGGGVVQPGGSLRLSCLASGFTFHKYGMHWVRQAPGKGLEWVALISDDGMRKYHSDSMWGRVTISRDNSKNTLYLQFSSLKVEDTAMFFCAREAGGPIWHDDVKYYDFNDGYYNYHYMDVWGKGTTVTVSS
Chain of 1443_C16 (PG16) (TCN-116) (antibody) (VL): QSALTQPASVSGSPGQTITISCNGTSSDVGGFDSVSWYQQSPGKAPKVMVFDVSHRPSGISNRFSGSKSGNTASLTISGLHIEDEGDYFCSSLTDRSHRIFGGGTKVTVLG

As for 4E10 (antibody), the IC50 (µg/ml), pseudovirus neutralization in [1] was 4.67 µg/mL; in assay [2], 7.61 µg/mL; in assay [3] it was 1.46 µg/mL; in [4], 3.7 µg/mL; in assay [5] it was 4.54 µg/mL; in assay [6], 16.7 µg/mL. The IC50 (µg/ml), pseudovirus neutralization in assay [7] was 1.28 µg/mL; in [8], 3.6 µg/mL; in [10] it was 1.15 µg/mL; in assay [12], 1.39 µg/mL; in assay [13], 4.7 µg/mL; in [14] it was 4.94 µg/mL. In addition, the IC50 (µg/ml), pseudovirus neutralization is 4.68 µg/mL in assay [19], 9.72 µg/mL in assay [21] and 1.14 µg/mL in assay [22]. For the same substance, the 50% inhibitory concentration (IC50) (usually the point on the concentration scale where inhibition reaches its midpoint) in assay [9] was 1.26 µg/mL; in [11], 0.55 µg/mL; in [15], 1.23 µg/mL; in [17], 2.13 µg/mL; in [20], 0.8 µg/mL. Besides, the IC50, pseudovirus neutralization in [16] was > 50 µg/mL; in assay [18], 8.86 µg/mL.

For the substance 1443_C16 (PG16) (TCN-116) (antibody), the IC50 (µg/ml), pseudovirus neutralization in assay [1] is 0.02 µg/mL; in assay [2], 1.12 µg/mL; in assay [3] it was 0.09 µg/mL; in [4] it was 0.01 µg/mL; in [5] it was 0.28 µg/mL; in assay [6], 0.73 µg/mL. The IC50 (µg/ml), pseudovirus neutralization was > 50 µg/mL in assay [7]; 0.02 µg/mL in assay [8]; > 50 µg/mL in assay [10]; 0.22 µg/mL in assay [12]; 2.55 µg/mL in assay [13]; 0.43 µg/mL in [14]. Besides, the IC50 (µg/ml), pseudovirus neutralization in assay [19] was 1.34 µg/mL; in assay [21] it was > 50 µg/mL; in assay [22], 0.02 µg/mL. Moreover, the IC50 is 0.25 µg/mL in assay [9]; 0.01 µg/mL in [11]; 2.42 µg/mL in assay [15]; > 50 µg/mL in assay [17]; 0.03 µg/mL in assay [20]. Also, the IC50, pseudovirus neutralization in [16] and in [18] was > 50 µg/mL in each case.

For the substance 1495_C14 (PGC14) (antibody), the IC50 (µg/ml), pseudovirus neutralization is 40 µg/mL in assay [1]; > 50 µg/mL in assay [2]; > 50 µg/mL in assay [3]; > 50 µg/mL in assay [4]; 46 µg/mL in assay [5]; > 50 µg/mL in assay [6]. Also, the IC50 (µg/ml), pseudovirus neutralization in assay [7], in assay [8], in [10], in assay [12], in assay [13] and in assay [14] was > 50 µg/mL in each case. Further, the IC50 (µg/ml), pseudovirus neutralization in assay [19], in [21] and in assay [22] was > 50 µg/mL in each case. Besides, the IC50 is 19 µg/mL in [9]; > 50 µg/mL in [11]; > 50 µg/mL in assay [15]; > 50 µg/mL in assay [17]; > 50 µg/mL in assay [20]. Moreover, the IC50, pseudovirus neutralization in [16] and in assay [18] was > 50 µg/mL each time.

Consider b12 (antibody), for which the IC50 (µg/ml), pseudovirus neutralization was 0.17 µg/mL in assay [1]; > 50 µg/mL in assay [2]; 7.04 µg/mL in [3]; 0.26 µg/mL in assay [4]; > 50 µg/mL in assay [5]; 2.82 µg/mL in assay [6]. Further, the IC50 (µg/ml), pseudovirus neutralization in [7] was 0.78 µg/mL; in assay [8], 5.92 µg/mL; in assay [10], > 50 µg/mL; in [12], > 50 µg/mL; in assay [13], > 50 µg/mL; in assay [14], > 50 µg/mL. The IC50 (µg/ml), pseudovirus neutralization in [19] is 3.62 µg/mL; in assay [21], > 50 µg/mL; in assay [22], > 50 µg/mL. The concentration for half-maximal inhibition (IC50) was 21.4 µg/mL in [9]; 17.1 µg/mL in assay [11]; > 50 µg/mL in [15]; > 50 µg/mL in [17]; 0.89 µg/mL in [20]. Further, the IC50, pseudovirus neutralization in assay [16] and in assay [18] was > 50 µg/mL in each case.
